The source of these data is patent CN112048019A.

Assay [1] has as its target CD47蛋白 (analyte in the ForteBio assay) (human) (UniProt Q08722). As to the kind of experiment: BLI (ForteBio), antibody captured on Protein A sensor, CD47 protein in solution at 6 concentrations.
Assay [2] has as its target CD47 on human cells (Jurkat target cells; human peripheral blood erythrocytes) (human) (UniProt Q08722). As to the kind of experiment: cell-based or functional assay.
The target of the next assay is 重组CD47-Fc融合蛋白 (human) (UniProt Q08722). As to the kind of experiment: competition ELISA: CD47-Fc coated, antibody blocks binding of SIRPα-His, anti-His-HRP detection. For orientation: An ELISA detects its analyte on a solid surface through an enzyme-linked reagent.

B1: 市售抗体B6H12 (antibody, from another filing, V domains shown)
VH: EVQLVESGGDLVKPGGSLKLSCAASGFTFSGYGMSWVRQTPDKRLEWVATITSGGTYTYYPDSVKGRFTISRDNAKNTLYLQIDSLKSEDTAIYFCARSLAGNAMDYWGQGTSVTVSS
VL: DIVMTQSPATLSVTPGDRVSLSCRASQTISDYLHWYQQKSHESPRLLIKFASQSISGIPSRFSGSGSGSDFTLSINSVEPEDVGVYYCQNGHGFPRTFGGGTKLEIK
The term Kd denotes the constant that tells how readily two partners part at equilibrium. The low end stands for a tighter complex, the high end for a looser complex. In general, koff refers to the rate constant with which the complex falls apart. Read a low koff as slow dissociation. A word on the kon: it is the rate constant with which the complex forms. A lower kon goes with slower complex formation. Usually EC50 stands for the concentration giving half of the maximal effect. A higher EC50 goes with a less potent agent. On to B1, for which, in assay [1], the Kd came out at 7.16 nM, the koff was found to be 0.000463 s⁻¹ and the on-rate constant (kon) is 64700 M⁻¹ s⁻¹. In addition, the 吞噬率/% (macrophage phagocytosis of CFSE-labelled Jurkat cells, flow cytometry) in assay [2] is 18%. Further, in the assay with 重组CD47-Fc融合蛋白 (human), the EC50 came out at 143 nM.
